The source of these data is patent US20150056222A1 (Regeneron, published 2015).

Experiment [1] addresses T1, monkey (macaca fascicularis) PRLR on HEK293 cells (macaca fascicularis, UniProt A0A2K5WXK1 25-619).
T1 construct: also called mfPRLR; HEK293/mfPRLR
T1 sequence: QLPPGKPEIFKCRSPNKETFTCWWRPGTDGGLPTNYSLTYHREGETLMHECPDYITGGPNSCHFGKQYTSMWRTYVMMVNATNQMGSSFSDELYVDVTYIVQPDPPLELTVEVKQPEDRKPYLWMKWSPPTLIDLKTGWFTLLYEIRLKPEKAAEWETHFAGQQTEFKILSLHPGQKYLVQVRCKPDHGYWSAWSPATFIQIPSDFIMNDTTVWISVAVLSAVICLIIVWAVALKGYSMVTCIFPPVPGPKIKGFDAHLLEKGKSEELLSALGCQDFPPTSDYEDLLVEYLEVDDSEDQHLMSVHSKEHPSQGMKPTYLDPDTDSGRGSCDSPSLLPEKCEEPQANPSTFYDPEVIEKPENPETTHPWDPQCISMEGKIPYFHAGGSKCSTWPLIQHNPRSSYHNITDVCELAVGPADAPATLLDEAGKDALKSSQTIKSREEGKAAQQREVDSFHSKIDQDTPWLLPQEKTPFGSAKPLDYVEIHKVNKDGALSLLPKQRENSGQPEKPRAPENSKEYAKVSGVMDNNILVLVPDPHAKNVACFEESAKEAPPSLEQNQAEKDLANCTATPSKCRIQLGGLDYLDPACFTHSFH
Nature of the experiment: FACS, HEK293/mfPRLR cells. (Flow cytometry measures light scatter and fluorescence of single cells or particles in a stream.)

The target in experiment [2] is T2, human prolactin receptor (PRLR) on cells (human, UniProt P16471 25-622).
T2 sequence: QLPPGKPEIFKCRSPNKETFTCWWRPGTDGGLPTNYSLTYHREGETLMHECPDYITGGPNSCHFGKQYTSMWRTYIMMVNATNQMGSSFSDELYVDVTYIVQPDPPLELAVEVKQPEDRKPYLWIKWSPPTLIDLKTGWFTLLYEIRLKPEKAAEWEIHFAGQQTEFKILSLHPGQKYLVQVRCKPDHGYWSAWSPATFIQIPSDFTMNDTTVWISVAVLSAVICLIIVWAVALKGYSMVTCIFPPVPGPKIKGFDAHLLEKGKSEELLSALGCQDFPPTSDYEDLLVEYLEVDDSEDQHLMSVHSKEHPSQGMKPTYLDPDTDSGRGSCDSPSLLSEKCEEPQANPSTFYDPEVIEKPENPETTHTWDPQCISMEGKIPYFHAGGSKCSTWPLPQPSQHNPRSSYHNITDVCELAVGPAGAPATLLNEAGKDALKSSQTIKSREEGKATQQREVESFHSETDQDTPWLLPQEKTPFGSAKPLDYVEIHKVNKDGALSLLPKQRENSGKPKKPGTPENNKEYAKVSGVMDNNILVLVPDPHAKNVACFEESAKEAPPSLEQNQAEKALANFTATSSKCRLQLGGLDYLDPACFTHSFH
The experiment is described as follows: cell-based or functional assay.

In experiment [3] the target is T2, human prolactin receptor (PRLR) on cells. The experiment is described as follows: FACS, T47D cells (native PRLR). Further: test concentration or dose not given here.
Experiment [4] concerns the target T3, hPRLR.mmh (soluble monomeric human PRLR) (human).
T3 construct: soluble monomeric construct
T3 chain: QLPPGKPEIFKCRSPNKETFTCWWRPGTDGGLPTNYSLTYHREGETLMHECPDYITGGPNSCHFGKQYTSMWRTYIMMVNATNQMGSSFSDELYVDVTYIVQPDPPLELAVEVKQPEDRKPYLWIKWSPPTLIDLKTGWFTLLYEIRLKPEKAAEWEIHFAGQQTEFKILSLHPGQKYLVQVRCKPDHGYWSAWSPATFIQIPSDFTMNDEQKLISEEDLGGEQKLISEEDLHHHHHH
The experiment is described as follows: SPR, 37C, mAb capture. As for the experimental part:
(§1) Measurements were conducted on a T200 Biacore instrument. Kinetic association (kₐ) and dissociation (kd) rate constants were determined by processing and fitting the data to a 1:1 binding model using Scrubber 2.0 curve fitting software. Binding dissociation equilibrium constants (KD) and dissociative half-lives (t_{1/2}) were calculated from the kinetic rate constants as: KD (M)=kd/kₐ; and […].

Experiment [5] concerns the target T4, mfPRLR.mmh (soluble monomeric macaca fascicularis PRLR) (macaca fascicularis).
T4 construct: soluble monomeric construct; also called macaca fascicularis (mf) PRLR.mmh
T4 chain: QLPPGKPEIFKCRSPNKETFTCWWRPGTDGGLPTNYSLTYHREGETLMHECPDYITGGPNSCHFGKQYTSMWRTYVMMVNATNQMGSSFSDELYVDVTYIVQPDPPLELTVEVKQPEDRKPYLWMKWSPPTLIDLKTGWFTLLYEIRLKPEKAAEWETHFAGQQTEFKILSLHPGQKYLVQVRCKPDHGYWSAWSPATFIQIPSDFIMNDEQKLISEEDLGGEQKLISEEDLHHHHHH
The experiment is described as follows: SPR, 37C, mAb capture. As for the experimental part:
as §1
Background: SPR reads the build-up and loss of mass on a sensor chip optically.

Experiment [6] addresses T5, hPRLR.mFc (soluble dimeric human PRLR) (human).
T5 construct: dimeric construct
T5 chain: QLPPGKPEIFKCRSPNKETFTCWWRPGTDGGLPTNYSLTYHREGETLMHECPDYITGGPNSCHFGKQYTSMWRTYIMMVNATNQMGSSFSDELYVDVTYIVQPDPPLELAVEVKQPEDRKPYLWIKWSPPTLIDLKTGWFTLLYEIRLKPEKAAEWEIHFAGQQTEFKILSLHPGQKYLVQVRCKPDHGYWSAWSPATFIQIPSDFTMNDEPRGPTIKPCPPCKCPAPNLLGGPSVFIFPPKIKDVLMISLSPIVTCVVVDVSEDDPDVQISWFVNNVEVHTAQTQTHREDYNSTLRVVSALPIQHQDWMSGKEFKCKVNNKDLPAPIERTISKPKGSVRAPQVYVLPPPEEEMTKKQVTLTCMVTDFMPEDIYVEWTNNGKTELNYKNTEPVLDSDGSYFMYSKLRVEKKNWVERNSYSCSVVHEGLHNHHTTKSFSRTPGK
Nature of the experiment: SPR, 37C, mAb capture. As for the experimental part: as §1

For experiment [7], the target named is T2, human prolactin receptor (PRLR) on cells. Nature of the experiment: FACS, HEK293/hPRLR cells. Further: test concentration or dose not given here.
In experiment [8] the target is T6, mouse PRLR on HEK293 cells (mouse, UniProt Q08501 20-608).
T6 construct: whole, on cells; also called mPRLR; HEK293/mPRLR
T6 sequence (looked up): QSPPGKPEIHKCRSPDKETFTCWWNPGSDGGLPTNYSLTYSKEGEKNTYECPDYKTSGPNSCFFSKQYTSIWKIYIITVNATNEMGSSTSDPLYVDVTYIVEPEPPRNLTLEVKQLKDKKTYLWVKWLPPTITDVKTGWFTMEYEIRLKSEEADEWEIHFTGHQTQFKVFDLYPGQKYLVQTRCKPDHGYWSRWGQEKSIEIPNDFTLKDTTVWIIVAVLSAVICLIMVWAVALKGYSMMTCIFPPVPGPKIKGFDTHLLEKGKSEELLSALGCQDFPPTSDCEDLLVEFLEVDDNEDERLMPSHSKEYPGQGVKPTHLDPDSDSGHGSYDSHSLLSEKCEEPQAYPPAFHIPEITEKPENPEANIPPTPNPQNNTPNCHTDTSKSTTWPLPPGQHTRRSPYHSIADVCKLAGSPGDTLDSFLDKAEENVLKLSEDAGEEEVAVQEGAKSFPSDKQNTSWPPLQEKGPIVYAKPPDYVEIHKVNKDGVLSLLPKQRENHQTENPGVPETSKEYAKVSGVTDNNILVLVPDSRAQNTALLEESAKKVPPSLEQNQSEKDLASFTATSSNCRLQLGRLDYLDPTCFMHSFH
Nature of the experiment: FACS, HEK293/mPRLR cells. Further: test concentration or dose not given here.
Wherever FACS Cell Binding (Fold Above Background) is given: test concentration or dose not given here.

B1: H1H6807P (antibody, V domains shown)
VH: QVQLVESGGGVVQPGRSLRLSCAASGFTFSDYNMHWVRQAPGKGLEWVAVIWYDGSNKHYADSVKGRFTISRDNSKNTLYLQMNSLRAEDTAVYYCARDGFTIFGMVLDYWGQGTLVTVSS
VL: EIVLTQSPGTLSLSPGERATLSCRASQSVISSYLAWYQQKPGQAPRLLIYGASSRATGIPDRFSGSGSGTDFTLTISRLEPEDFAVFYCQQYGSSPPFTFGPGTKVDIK
notes: human IgG1 Fc (H1H)
As for B1, the “FACS Cell Binding (Fold Above Background)” value came out at 27 fold above background in experiment [1], 34 fold above background in experiment [3], 32 fold above background in experiment [7] and 2 fold above background in experiment [8]. The “% Internalization relative to Control I (alexa488 intensity in intracellular vesicles at 37 C, T47D cells)” value (from here on “% Internalization relative to Control I”) in experiment [2] worked out at 147%. Also, the T½ was 34 min in experiment [4], 32 min in experiment [5] and 105 min in experiment [6].

B2: H1H6797P (antibody, human IgG1, V domains shown)
VH: EVQLVESGGGLVQPGGSLRLSCIVSGFTFSGSWMSWVRQLPGKGLEWVANIKEDGSDSYYVDSVEGRFTISRDNAKSSLYLQMNSLRVDDTAVYFCARARTVPLHYWGQGTLVTVSS
VL: DIQMTQSPSTLSASVGDRVTITCRASQSINIWLAWYQQKPGKAPKLLIYRASYLESGVPSSFAGGGSGTEFTLTISSLQPDDFGTYYCQHYNSYPFTFGQGTKLEIK
notes: human IgG1 Fc (H1H)
As for B2, the “FACS Cell Binding (Fold Above Background)” value in experiment [1] was 25 fold above background; in experiment [3] it was 38 fold above background; in experiment [7], 1 fold above background; in experiment [8] it was 2 fold above background. The “% Internalization relative to Control I” value in experiment [2] is 145%. Moreover, the values for the T½ in experiment [4], in experiment [5] and in experiment [6] were 1 min, 1 min and 93 min, respectively.

B3: H1H6790P (antibody, human IgG1, V domains shown)
VH: EVQLVESGGGLVQPGGSLRLSCAASGFTFSSYAMTWVRQAPGKGLEWVSAITGSVGNTYYADSVKGRFTISRDNSKNTLYLQMNSLGAEDTAEYYCAKGAGMTTNWYLDLWGRGTLVTVSS
VL: DIVMTQSPDSLAVSLGARATINCKSSQSVLYSSNNQNYLTWYQQKPGQPPKLLIKWASTRESGVPDRFSGSGSGTDFTLTISSLQAEDVAVYYCQQYASSPYTFGQGTKLEIK
notes: human IgG1 Fc (H1H)
With B3, the “FACS Cell Binding (Fold Above Background)” value came to 24 fold above background in experiment [1], 34 fold above background in experiment [3], 37 fold above background in experiment [7] and 1 fold above background in experiment [8]. Besides, the “% Internalization relative to Control I” value in experiment [2] was 147%. Further, the T½ was 4 min in experiment [4], 4 min in experiment [5] and 58 min in experiment [6].

B4: H1H6795P (antibody, human IgG1, V domains shown)
VH: QVQLVQSGAEVKKPGASVKVSCKASGYTFGTSGITWVRQAPGQGLEWMGWSSAYNGKTDYAQKFQDRVTMTTDTSTTTGYMEMRSLTSDDTAVYYCTTVVRRPFDFWGQGTLVTVSS
VL: DIQMTQSPSSLSASVGDRVTITCRASQDINNFLAWFQQKPGKAPKSLIYAASSLQSGVPSKFSGGGSGTDFALTISSLQPEDFATYYCQQYSSYPITFGQGTRLEIK
notes: human IgG1 Fc (H1H)
For the molecule B4, the “FACS Cell Binding (Fold Above Background)” value in experiment [1] is 22 fold above background; in experiment [3], 34 fold above background; in experiment [7], 1 fold above background; in experiment [8], 1 fold above background. Also, in experiment [2], the “% Internalization relative to Control I” value turned out to be 151%. In addition, the results for the T½ in experiment [4], in experiment [5] and in experiment [6] were 2 min, 2 min and 149 min, respectively.

B5: H1H6953N (antibody, human IgG1, V domains shown)
VH: EVQLLESGGGLVQPGGTLRLSCAASGFTFSAYAMSWVRQAPGKGLEWVSSINVRAGDTYYADSVKGRFTISRDNSKNTLFLLMNSLRAEDTAAYYCAKARYSSNWGFDFWGQGTLVTVSS
VL: DIVMTQSPDSLTVSLGARTTINCQSSQTILHSSNNHNYLAWYQQKPGLPPKLLIYWSSTRESGVPDRFSGSGSGTDFTLTISSLQAEDVAIYYCQQYSNTPYTFGQGTKLEIN
notes: also called H1M6953N
Regarding B5, the “FACS Cell Binding (Fold Above Background)” value in experiment [1] turned out to be 29 fold above background; in experiment [3] it was 40 fold above background; in experiment [7], 37 fold above background; in experiment [8], 2 fold above background. For the same molecule, the “% Internalization relative to Control I” value in experiment [2] came out at 154%. In addition, the T½ was 9.4 min in experiment [4], 4.5 min in experiment [5] and 68 min in experiment [6].

B6: H1H6804P (antibody, human IgG1, V domains shown)
VH: QVTLKESGPVLVKPTQTLSLTCTVSGFSLSDAGMGVSWIRQPPGKALEWLAHIFSNDGKSYSTSLKSRLTISKDTSKRQVVLTMTNMDPVDTATYYCARIRTGTYSLYLDYWGQGTLVTVSS
VL: DIQMTQSPSSLSASVGDRVTITCRASQSINSYLNWYQQKPGKAPKLLLYFASSLQSGVPSRFSGSGSGTDFTLTISSLQPEDFASYYCQESYSTPWTFGQGTKVEIK
notes: human IgG1 Fc (H1H)
Turning to B6, the “FACS Cell Binding (Fold Above Background)” value in experiment [1] was 29 fold above background; in experiment [3] it was 34 fold above background; in experiment [7] it was 1 fold above background; in experiment [8] it was 1 fold above background. Besides, in experiment [2], the “% Internalization relative to Control I” value was 139%. Besides, the T½ in experiment [4] is 3 min; in experiment [5], 3 min; in experiment [6], 56 min.
